Data on 28 molecules can be found in patent US20250011363A1, “OPTIMIZED SHORTENED PEPTIDE THAT BINDS TO ACETYLCHOLINE RECEPTOR, AND USE THEREOF” (SKINMED CO., LTD., priority 2021, published 2025).

The target in the assay is acetylcholine receptor. Description: SPR, receptor immobilized, peptide 10 uM. On the technique in general: In SPR one partner is held on a chip, and binding of the other changes the refractive index at the surface.

As to RYNWK [5mer-777], the Binding affinity (RU) was 28 RU.
Next, KADMK [5mer-1077]: 12 RU.
Next, RACFR [5mer-1082]: 11 RU; RYTHK [5mer-1080]: 25 RU.
KEAWK [5mer-1078] returned a Binding affinity (RU) of 19 RU.
Next, KCKVR [5mer-783]: 29 RU; KAKKK [5mer-1088]: 16 RU; KFEKK [5mer-1076]: 21 RU.
With RFNKK [5mer-786] the figure was 29 RU; with KYPPR [5mer-779], 21 RU; with RIWDR [5mer-1086], 19 RU.
Next, RPNVR [5mer-1081]: 13 RU.
KKKKR [5mer-1087] came in with a Binding affinity (RU) of 11 RU.
With KDNIR [5mer-787] the figure was 17 RU.
Next, KYHGK [5mer-788]: 16 RU.
KANAR [5mer-782] yielded a Binding affinity (RU) of 32 RU.
Next, RTHDR [5mer-1084]: 21 RU; RCDFR [5mer-776]: 17 RU; KFWIR [5mer-789]: 12 RU.
Next, KFSVR [5mer-1083]: 31 RU; RACEK [5mer-784]: 21 RU.
Next, KKDHK [5mer-778]: 24 RU; RKHIK [5mer-1075]: 26 RU.
RIDPR [5mer-781] showed a Binding affinity (RU) of 28 RU.
Next, KPTIR [5mer-785]: 31 RU; KYTGR [5mer-1079]: 31 RU.
With RDSHK [5mer-780] the figure was 27 RU; with RTTER [5mer-1085], 14 RU.
